PMC5384650

Substrate: NC[C@H](N)C(=O)O
Experiment: coupled NADH oxidation assay
Assay type: biochemical, Salmonella enterica
Details: ATP, Mg2+ used in place of beta-alanine

B1: pantothenate synthetase (PanC) (Salmonella enterica subsp. enterica serovar Typhimurium str. LT2) (protein)
chain: MLIIETLPLLRQHIRRLRQEGKRVALVPTMGNLHDGHMKLVDEAKARADVVIVSIFVNPMQFDRPDDLVRYPRTLQEDCEKLNKRKVDYVFAPAVEEIYPHGLEGQTYVDVPGLSTMLEGASRPGHFRGVSTIVSKLFNLIQPDIACFGEKDFQQLALIRKMVADMSYDIEIVGVPIIRAKDGLALSSRNAYLTAEQRKIAPGLYNVMNSIAEKLIAGNRELQEIIAIAEQELNEKGFRADDIQIRDADTLLELTETSKRAVILAAAWLGQARLIDNQSVTLAQ
B1 gave a Km of 8.1 mM.
